Laboratory results published in patent publication US10047131B2, “Peptides and combination of peptides for use in immunotherapy against ovarian cancer and other cancers” (immatics biotechnologies GmbH, priority 2015, dated 2018).

Molecular target: HLA-A*02:01 (Homo sapiens, UniProt P04439, D140Y/D185E/D98H/E176V/E277Q/G131W/G231S/I119V/I121R/I166T/I218V/L300P/L318F/N151K/N90K/P208A/P217A/Q86G/Q94H/R138H/R169H/T345S)
Assay: MHC binding assay (UV-ligand exchange, ELISA of exchange yield)
Conditions: binding to HLA-A*02:01, UV-ligand exchange
Source text: Candidate peptides for T cell based therapies according to the present invention were further tested for their MHC binding capacity (affinity). The individual peptide-MHC complexes were produced by UV-ligand exchange, where a UV-sensitive peptide is cleaved upon UV-irradiation, and exchanged with the peptide of interest as analyzed. Only peptide candidates that can effectively bind and stabilize the peptide-receptive MHC molecules prevent dissociation of the MHC complexes. To determine the yield of the exchange reaction, an ELISA was performed based on the detection of the light chain (p2m) of stabilized MHC complexes. The assay was performed as generally described in Rodenko et al. (Rodenko et al., 2006).
96 well MAXISorp plates (NUNC) were coated over night with 2 μg/ml streptavidin in PBS at room temperature, washed 4× and blocked for 1 h at 37° C. in 2% BSA containing blocking buffer. […] Peptide-MHC monomers of the UV-exchange reaction were diluted 100 fold in blocking buffer. Samples were incubated for 1h at 37° C., washed four times, incubated with 2 μg/ml HRP conjugated anti-β2m for 1h at 37° C., washed again and detected with TMB solution that is stopped with […]. Absorption was measured at 450 nm. Candidate peptides that show a high exchange yield (preferably higher than 50%, most preferred higher than 75%) are generally preferred for a generation and production of antibodies or fragments thereof, and/or T cell receptors or fragments thereof, as they show sufficient avidity to the MHC molecules and prevent dissociation of the MHC complexes.

Peptide exchange (MHC class I binding score, peptide exchange yield) | Substance
“+++” (≥50 = +++) | 106 (LLYDAVHIVSV; listed as Homo sapiens) [compound 106]
“+++” (≥50 = +++) | 107 (FLQPVDDTQHL; listed as Homo sapiens) [compound 107]
“++++” (≥75% = ++++) | 108 (ALFPGVALLLA; listed as Homo sapiens) [compound 108]
“++++” (≥75% = ++++) | 109 (IILSILEQA; listed as Homo sapiens) [compound 109]
“+++” (≥50 = +++) | 110 (FLSQVDFEL; listed as Homo sapiens) [compound 110]
“+++” (≥50 = +++) | 111 (YVWGFYPAEV; listed as Homo sapiens) [compound 111]
“+++” (≥50 = +++) | 113 (GLLPTPLFGV; listed as Homo sapiens) [compound 113]
“++” (≥20% = ++) | 114 (SLVGEPILQNV; listed as Homo sapiens) [compound 114]
“++” (≥20% = ++) | 115 (AIAGAGILYGV; listed as Homo sapiens) [compound 115]
“+” (≥10% = +) | 116 (YHIDEEVGF; listed as Homo sapiens) [compound 116]
“+++” (≥50 = +++) | 117 (ILPDGEDFLAV; listed as Homo sapiens) [compound 117]
“+++” (≥50 = +++) | 118 (KLIDNNINV; listed as Homo sapiens) [compound 118]
“++++” (≥75% = ++++) | 119 (FLYIGDIVSL; listed as Homo sapiens) [compound 119]
“+++” (≥50 = +++) | 120 (ALLGIPLTLV; listed as Homo sapiens) [compound 120]
“++” (≥20% = ++) | 121 (GVVDPRAISVL; listed as Homo sapiens) [compound 121]
“+++” (≥50 = +++) | 122 (FLLAEDDIYL; listed as Homo sapiens) [compound 122]
“+++” (≥50 = +++) | 123 (NLWDLTDASVV; listed as Homo sapiens) [compound 123]
“++” (≥20% = ++) | 124 (ALYETELADA; listed as Homo sapiens) [compound 124]
“+++” (≥50 = +++) | 125 (VQIHQVAQV; listed as Homo sapiens) [compound 125]
“++++” (≥75% = ++++) | 126 (VLAYFLPEA; listed as Homo sapiens) [compound 126]
“++” (≥20% = ++) | 127 (KIGDEPPKV; listed as Homo sapiens) [compound 127]

Peptide exchange (MHC class I binding score, peptide exchange yield) | Substance
“++” (≥20% = ++) | 128 (YLFDDPLSAV; listed as Homo sapiens) [compound 128]
“+++” (≥50 = +++) | 129 (GLLDGGVDILL; listed as Homo sapiens) [compound 129]
“+++” (≥50 = +++) | 130 (FLWNGEDSALL; listed as Homo sapiens) [compound 130]
“++” (≥20% = ++) | 131 (FVPPVTVFPSL; listed as Homo sapiens) [compound 131]
“+++” (≥50 = +++) | 132 (LLVEQPPLAGV; listed as Homo sapiens) [compound 132]
“++” (≥20% = ++) | 133 (KVLSNIHTV; listed as Homo sapiens) [compound 133]
“+++” (≥50 = +++) | 134 (YLQELIFSV; listed as Homo sapiens) [compound 134]
“+++” (≥50 = +++) | 135 (ALSEVDFQL; listed as Homo sapiens) [compound 135]
“+++” (≥50 = +++) | 136 (YLADPSNLFVV; listed as Homo sapiens) [compound 136]
“++++” (≥75% = ++++) | 137 (TLVLTLPTV; listed as Homo sapiens) [compound 137]
“+++” (≥50 = +++) | 138 (YQYPRAILSV; listed as Homo sapiens) [compound 138]
“+++” (≥50 = +++) | 139 (SVMEVNSGIYRV; listed as Homo sapiens) [compound 139]
“++” (≥20% = ++) | 140 (YMDAPKAAL; listed as Homo sapiens) [compound 140]
“++” (≥20% = ++) | 141 (YLDFSNNRL; listed as Homo sapiens) [compound 141]
“+++” (≥50 = +++) | 142 (FLFATPVFI; listed as Homo sapiens) [compound 142]
“++++” (≥75% = ++++) | 143 (LLLDITPEI; listed as Homo sapiens) [compound 143]
“+++” (≥50 = +++) | 144 (YIMEPSIFNTL; listed as Homo sapiens) [compound 144]
“++” (≥20% = ++) | 145 (FLATSGTLAGI; listed as Homo sapiens) [compound 145]
“++” (≥20% = ++) | 146 (SLATAGDGLIEL; listed as Homo sapiens) [compound 146]
“+++” (≥50 = +++) | 147 (SLLEAVSFL; listed as Homo sapiens) [compound 147]
“++” (≥20% = ++) | 148 (ALNPEIVSV; listed as Homo sapiens) [compound 148]

Peptide exchange (MHC class I binding score, peptide exchange yield) | Substance
“+++” (≥50 = +++) | 149 (NLLELFVQL; listed as Homo sapiens) [compound 149]
“+++” (≥50 = +++) | 150 (RLWEEGEELEL; listed as Homo sapiens) [compound 150]
“+++” (≥50 = +++) | 151 (KILQQLVTL; listed as Homo sapiens) [compound 151]
“+++” (≥50 = +++) | 152 (ILFEDIFDV; listed as Homo sapiens) [compound 152]
“+” (≥10% = +) | 153 (FLIANVLYL; listed as Homo sapiens) [compound 153]
“++” (≥20% = ++) | 154 (ALDDGTPAL; listed as Homo sapiens) [compound 154]
“+++” (≥50 = +++) | 155 (RVANLHFPSV; listed as Homo sapiens) [compound 155]
“++” (≥20% = ++) | 157 (SLNDEVPEV; listed as Homo sapiens) [compound 157]
“+++” (≥50 = +++) | 158 (KLFDVDEDGYI; listed as Homo sapiens) [compound 158]
“++++” (≥75% = ++++) | 159 (GLVGNPLPSV; listed as Homo sapiens) [compound 159]
“+++” (≥50 = +++) | 160 (FLFDEEIEQI; listed as Homo sapiens) [compound 160]
“+++” (≥50 = +++) | 161 (ALLEGVNTV; listed as Homo sapiens) [compound 161]
“+++” (≥50 = +++) | 162 (YQQAQVPSV; listed as Homo sapiens) [compound 162]
“+++” (≥50 = +++) | 163 (ALDEMGDLLQL; listed as Homo sapiens) [compound 163]
“+++” (≥50 = +++) | 164 (ALLPQPKNLTV; listed as Homo sapiens) [compound 164]
“+++” (≥50 = +++) | 165 (SLLDEIRAV; listed as Homo sapiens) [compound 165]
“+++” (≥50 = +++) | 166 (YLNHLEPPV; listed as Homo sapiens) [compound 166]
“+++” (≥50 = +++) | 167 (KVLEVTEEFGV; listed as Homo sapiens) [compound 167]
“++++” (≥75% = ++++) | 168 (KILDADIQL; listed as Homo sapiens) [compound 168]
